# Laboratory results: publication PMC5943153 (Molecular microbiology, 2018)
# Values joined by “and” are separate entries in the source; they are usually repeats but may differ in a detail not shown here. Equal values may be shown once.
# T1: T25-HP1492 (Nfu) (Helicobacter pylori strain 26695, UniProt O26025 2-89)
# T1 sequence (looked up): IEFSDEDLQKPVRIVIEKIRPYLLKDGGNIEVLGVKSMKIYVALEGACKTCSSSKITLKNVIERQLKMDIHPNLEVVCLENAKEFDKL
# T2: T25-HP0221 (NifU) (Helicobacter pylori strain 26695, UniProt O25009 2-326)
# T2 sequence (looked up): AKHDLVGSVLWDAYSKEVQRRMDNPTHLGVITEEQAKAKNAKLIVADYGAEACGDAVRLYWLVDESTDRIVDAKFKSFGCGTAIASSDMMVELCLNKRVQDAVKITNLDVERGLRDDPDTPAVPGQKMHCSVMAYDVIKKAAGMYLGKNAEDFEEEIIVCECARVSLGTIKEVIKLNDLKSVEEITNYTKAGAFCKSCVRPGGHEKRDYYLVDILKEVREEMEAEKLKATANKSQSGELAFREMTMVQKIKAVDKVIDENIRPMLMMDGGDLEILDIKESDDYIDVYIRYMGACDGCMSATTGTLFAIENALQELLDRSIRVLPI
# T3: HP0221-T25 (NifU) (Helicobacter pylori strain 26695, UniProt O25009 2-326)
# T3 sequence (looked up): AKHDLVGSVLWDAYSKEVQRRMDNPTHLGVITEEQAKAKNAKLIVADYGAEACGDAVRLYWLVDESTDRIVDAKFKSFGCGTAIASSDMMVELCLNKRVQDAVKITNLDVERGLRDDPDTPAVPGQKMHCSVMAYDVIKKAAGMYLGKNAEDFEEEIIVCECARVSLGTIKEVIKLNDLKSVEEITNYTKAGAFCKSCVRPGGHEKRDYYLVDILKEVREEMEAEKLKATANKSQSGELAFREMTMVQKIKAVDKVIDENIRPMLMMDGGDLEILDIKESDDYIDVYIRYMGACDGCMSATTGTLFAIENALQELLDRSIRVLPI
# Experiments:
# T25-HP0220 (NifS) = T25-HP0220 (NifS) (Helicobacter pylori strain 26695, UniProt O25008 2-387); experiment: two-hybrid
# T25-HP1492 (Nfu) = target: T1, T25-HP1492 (Nfu); experiment: two-hybrid
# T25-HP0221 (NifU) = target: T2, T25-HP0221 (NifU); experiment: two-hybrid
# HP0221-T25 (NifU) = target: T3, HP0221-T25 (NifU); experiment: two-hybrid
# SEC = target: the molecule itself; experiment: SEC
Binder,growth OD595 in M63-maltose (T25-HP0220 (NifS)),growth OD595 in M63-maltose (T25-HP1492 (Nfu)),growth OD595 in M63-maltose (T25-HP0221 (NifU)),growth OD595 in M63-maltose (HP0221-T25 (NifU)),stoichiometry N (SEC)
"T18-HP1266 (natural protein, Helicobacter pylori strain 26695, UniProt O25856 2-844, looked up) ITMNINGKTIECQEGQSVLEAARSAGIYIPTICYLSGCSPTVACKMCMVEMDGKRVYSCNTKAKNNATILTNTPTLMDERKSIMQTYDVNHPLECGVCDKSGECELQDMTHLTGVEHQPYAVADDFKALDFWAKALYDPNLCIMCERCVTTCKDNVGENNLKATKADLHAPDKFKDSMSKDAFSVWSRKQKGIISFVGSVPCYDCGECIAVCPVGALSYKDFAYTANAWELKKIHSTCSHCSAGCLISYDVRHFDTLGEESKIFRVLNDFYHNPICGAGRFAFDVSSSPKGSANLKEAQNALKECEAVRIGGDITNEEAFLIERLRKELDFKIYNQEAYRFQQFLKVLGEIKRPSVEEIKTSHLVVTIGSSIKTENPLVRYAINNALKLNKASLIAMHPIKDNALANLCRSSFCITHEVGAEEILLGMLLKMLNIESAALKSLEDSKQNIVDEAALKALEEERKKALEQAEQGCSIGENKAENQEENKTEATTPKEENQEENKTEVKEEKIEVPTKTTYLLLEEAGINLETYEKILALLQKSNNTLLVVGEEIYSHKQAHNIAKMLRLLAQKSAIKLILIPPSANALGIASICQLSEEIFEHEKIVGIRAQGDFTINSDDRVFGKDAASKVDFILPSLNQLEGTITNIEGRVLPLKPALRFEGYDLSDIMQGFGFVEENLIECTHKLPTEAGFKAIEFDYLTNYFANDRVNHRGYLLGTSHFEKSAKECETIECEPIKPLKEKIAFNAYLKYPETQFNNATNKSENLQLKAGVYVSKAFLKKLNKEVGQNITLSKEEEELTGVLYLDESLDQEVFVISPSLLKNHSGFFREGVFDSVDLKEQA",0.16 OD595,0.24 OD595,–,–,–
"T18-HP1540 (natural protein, Helicobacter pylori strain 26695, UniProt O26065 2-167, looked up) ADIQRRDFLGMSLASVTAIGAIASLVAMKKTWDPLPSVVSAGFTTIDVANMQEGQFSTVEWRGKPVYILKRSKKEGFNEKRDFKVGESVFTTAIQICTHLGCIPTYQDEEKGFLCPCHGGRFTSDGVNIAGTPPPRPFDIPPFKIEGTKITFGEAGAEYKKMMAKA",–,0.17 OD595,0.24 OD595,0.44 OD595,–
"T18-HP0734 (natural protein, Helicobacter pylori strain 26695, UniProt O25434 2-439, looked up) QVKENKQLCLISLGCSKNLVDSEVMLGKLYNYTLTNDAKSADVILINTCGFIESAKQESIQTILNAAKDKKEGAILIASGCLSERYKDEIKELIPEVDIFTGVGDYDKIDIMIAKKQNQFSEQVFLSEHYNARIITGSSVHAYVKISEGCNQKCSFCAIPSFKGKLQSRELDSILKEVENLALKGYTDMTFIAQDSSSFLYDKGQKDGLIQLIRAIDKQQALKSARILYLYPSSTTLELIGAIESSPIFQNYFDMPIQHISDSMLKKMRRNSSQAHHLKLLDAMKQVKESFIRSTIIVGHPEENESEFEELSAFLDEFQFDRLNIFAFSAEENTHAYSLEKVPKKTINARIKALNKIALKHQNHSFKALLNKPIKALVENKEGEYFYKARDLRWAPEVDGEILINDSELTTPLKPGHYTIAPSEFKDNILLAKVLSPF",–,0.12 OD595,0.4 OD595,0.48 OD595,–
"T18-HP1428 (natural protein, Helicobacter pylori strain 26695, UniProt O25970 2-357, looked up) KASIYDFTLKELSQLLKPSFRAKQLYLWLYAKYKTSFKDMQNNFSKDFIAYLEREFALRTIEITHVRESVDGSKKYLFKSLRDNHTFEAVLLKMKDKKIDAETNAILEREKYTVCVSCQIGCQVGCSFCFTQKGGFVRNLKASEIIQQALLIKEDNNLPLEKALNIVFMGMGEPLNNLDEVCKAIEIFNTGMQISPKRITISTSGVADKIPILAGKNLGVQLAISLHAVDDKTRSSLMPLNKKYNIECVLNEVRKWPLEQRKRVMFEYLLIKDLNDSLDCAKKLLKLLNGIKSKVNLILFNPHEGSKFERPSLENARMFADFLNSKGLLCTIRESKALDIEAACGQLREKKLSQQI",–,0.08 OD595,0.15 OD595,0.27 OD595,–
"NifS (purified recombinant) (enzyme, Helicobacter pylori strain 26695, UniProt O25008 1-387, looked up) MLQRIYLDNNATTRIDPKVKEIMDPFLRDHYGNPSSLHQFGTETHPAIAEALDKLYKGINARDIDDVIITSCATESNNWVLKGVYFDECLKKGKNHIVTTVAEHPAVRSTCNFLESLGVEVTYLPINEHGSITAEQVKEAITEKTALVSVMWANNETGLIFPIEEIGAICKEKGVLFHTDAVQAIGKIPVDVLKANADFLSFSAHKFHGPKGIGGLYIRSGVGLTPLFHGGEHMNGRRSGTLNVPYIVGMGEAMKLAVEHLDYEKEVVGKLRDKLEEALLKIPDVMVVGDRIHRVPNTTLVSVRGIEGEAMLWDLNRSNIAASTGSACASEDLEANPVMVAIGASKELAHTAIRLSLSRFNTEAEIDKTIEVFSQAAVRLRNISSSY",–,–,–,–,2
"T18-HP0277 (natural protein, Helicobacter pylori strain 26695, UniProt O25054 2-84, looked up) SLLVNDECIACDACREECPSEAIEEGDPIYNIDPDRCTECYGYDDDEPRCVSVCPVDAILPDPNNAESKEELKYKYESLKEQD",0.3 OD595,0.4 OD595,–,–,–
"T18-HP0207 (natural protein, Helicobacter pylori strain 26695, UniProt O24999 2-368, looked up) LTQEDVLNALKTIIYPNFEKDIVSFGFVKNITLHDDQLGLLIEIPSSSEETSAILRENISKAMQEKGVKALNLDIKTPPKPQAPKPTTKNLAKNIKHVVMISSGKGGVGKSTTSVNLSIALANLNQKVGLLDADVYGPNIPRMMGLQSADVIMDPSGKKLIPLKAFGVSVMSMGLLYDEGQSLIWRGPMLMRAIEQMLSDIIWGDLDVLVVDMPPGTGDAQLTLAQAVPLSAGITVTTPQIVSLDDAKRSLDMFKKLHIPIAGIVENMGSFVCEHCKKESEIFGSNSMSELLEAYHTQILAKLPLEPKVRLGGDRGEPIVISHPNSVSAKIFEKMAQDLSAFLERVKKEKLADNKDIQPTQTHACSH",0.23 OD595,0.21 OD595,0.14 OD595,0.13 OD595,–
"T18-HP1268 (natural protein, Helicobacter pylori strain 26695, UniProt O25858 2-220, looked up) AKQEYKQLPKRAEVHSATEQFKDTVKTSLGLDLFKGLGLTIKEFFSPSVTIHYPMEQLPLSPRYRAVHNLQRLLDSGSERCIGCGLCEKICTSNCIRIITHKGEDNRKKIDSYTINLGRCIYCGLCAEVCPELAIVMGNRFENASTQRSQYGSKSEFLTSEQDAKNCSHAEFLGFGAVSPNYNERMQATPLDYVQEPSKEESQEETPTNPESNKGDENV",–,0.18 OD595,0.33 OD595,0.22 OD595,–
"T18-HP0220 (natural protein, Helicobacter pylori strain 26695, UniProt O25008 2-387, looked up) LQRIYLDNNATTRIDPKVKEIMDPFLRDHYGNPSSLHQFGTETHPAIAEALDKLYKGINARDIDDVIITSCATESNNWVLKGVYFDECLKKGKNHIVTTVAEHPAVRSTCNFLESLGVEVTYLPINEHGSITAEQVKEAITEKTALVSVMWANNETGLIFPIEEIGAICKEKGVLFHTDAVQAIGKIPVDVLKANADFLSFSAHKFHGPKGIGGLYIRSGVGLTPLFHGGEHMNGRRSGTLNVPYIVGMGEAMKLAVEHLDYEKEVVGKLRDKLEEALLKIPDVMVVGDRIHRVPNTTLVSVRGIEGEAMLWDLNRSNIAASTGSACASEDLEANPVMVAIGASKELAHTAIRLSLSRFNTEAEIDKTIEVFSQAAVRLRNISSSY",0.29 OD595,0.22 OD595,0.13 OD595,0.11 OD595,–
"NifU (purified recombinant) (natural protein, Helicobacter pylori strain 26695, UniProt O25009 1-326, looked up) MAKHDLVGSVLWDAYSKEVQRRMDNPTHLGVITEEQAKAKNAKLIVADYGAEACGDAVRLYWLVDESTDRIVDAKFKSFGCGTAIASSDMMVELCLNKRVQDAVKITNLDVERGLRDDPDTPAVPGQKMHCSVMAYDVIKKAAGMYLGKNAEDFEEEIIVCECARVSLGTIKEVIKLNDLKSVEEITNYTKAGAFCKSCVRPGGHEKRDYYLVDILKEVREEMEAEKLKATANKSQSGELAFREMTMVQKIKAVDKVIDENIRPMLMMDGGDLEILDIKESDDYIDVYIRYMGACDGCMSATTGTLFAIENALQELLDRSIRVLPI",–,–,–,–,2
"Nfu (purified recombinant) (natural protein, Helicobacter pylori strain 26695, UniProt O26025 1-89, looked up) MIEFSDEDLQKPVRIVIEKIRPYLLKDGGNIEVLGVKSMKIYVALEGACKTCSSSKITLKNVIERQLKMDIHPNLEVVCLENAKEFDKL",–,–,–,–,4 and 2
"T18-HP0221 (natural protein, Helicobacter pylori strain 26695, UniProt O25009 2-326, looked up) AKHDLVGSVLWDAYSKEVQRRMDNPTHLGVITEEQAKAKNAKLIVADYGAEACGDAVRLYWLVDESTDRIVDAKFKSFGCGTAIASSDMMVELCLNKRVQDAVKITNLDVERGLRDDPDTPAVPGQKMHCSVMAYDVIKKAAGMYLGKNAEDFEEEIIVCECARVSLGTIKEVIKLNDLKSVEEITNYTKAGAFCKSCVRPGGHEKRDYYLVDILKEVREEMEAEKLKATANKSQSGELAFREMTMVQKIKAVDKVIDENIRPMLMMDGGDLEILDIKESDDYIDVYIRYMGACDGCMSATTGTLFAIENALQELLDRSIRVLPI",0.12 OD595,0.08 OD595,–,–,–
